Kd data for three substances are collected here from PMC5958618.

pKd: −log10 of the molar value.

By pKd is commonly meant the Kd on a negative log10 scale, so that one unit is a factor of ten. A lower pKd goes with a high Kd.

For this assay, the target named is F-actin (UniProt P68032). The assay can be described thus: co-sedimentation.
Regarding “E62Q mutant human α-tropomyosin (Tpm1.1) with the N-terminal extension Met-Ala-Ser (natural protein)”, the pKd is 5.77.
The substance “E40K mutant human α-tropomyosin (Tpm1.1) with the N-terminal extension Met-Ala-Ser (natural protein)” had a pKd of 5.80.
Next, “wild-type human striated α-tropomyosin (Tpm1.1) with the N-terminal extension Met-Ala-Ser (natural protein)”: 5.74.
